Measured values taken from US20260015426A1 (23ANDME, published 2026).

T1: hu-M-IL1RAP construct, positions S21-T367 (extracellular domain of the membrane form of human IL1RAP) (human, UniProt Q9NPH3 21-367)
T1 construct: Biotinylated when captured on the Biacore chip
T1 sequence: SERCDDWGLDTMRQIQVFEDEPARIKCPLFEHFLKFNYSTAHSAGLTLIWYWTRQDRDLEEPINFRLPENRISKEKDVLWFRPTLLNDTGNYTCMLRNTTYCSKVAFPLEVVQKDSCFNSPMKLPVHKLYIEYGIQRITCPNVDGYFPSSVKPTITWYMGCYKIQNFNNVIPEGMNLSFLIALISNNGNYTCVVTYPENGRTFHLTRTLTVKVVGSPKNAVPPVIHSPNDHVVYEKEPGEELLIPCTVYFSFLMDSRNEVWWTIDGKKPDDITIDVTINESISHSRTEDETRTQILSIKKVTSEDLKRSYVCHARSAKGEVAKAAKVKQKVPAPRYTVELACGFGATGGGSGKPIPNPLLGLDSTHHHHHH

T2: human IL1RAP (hu-IL1RAP) on human cells (human, UniProt Q9NPH3 21-570)
T2 sequence: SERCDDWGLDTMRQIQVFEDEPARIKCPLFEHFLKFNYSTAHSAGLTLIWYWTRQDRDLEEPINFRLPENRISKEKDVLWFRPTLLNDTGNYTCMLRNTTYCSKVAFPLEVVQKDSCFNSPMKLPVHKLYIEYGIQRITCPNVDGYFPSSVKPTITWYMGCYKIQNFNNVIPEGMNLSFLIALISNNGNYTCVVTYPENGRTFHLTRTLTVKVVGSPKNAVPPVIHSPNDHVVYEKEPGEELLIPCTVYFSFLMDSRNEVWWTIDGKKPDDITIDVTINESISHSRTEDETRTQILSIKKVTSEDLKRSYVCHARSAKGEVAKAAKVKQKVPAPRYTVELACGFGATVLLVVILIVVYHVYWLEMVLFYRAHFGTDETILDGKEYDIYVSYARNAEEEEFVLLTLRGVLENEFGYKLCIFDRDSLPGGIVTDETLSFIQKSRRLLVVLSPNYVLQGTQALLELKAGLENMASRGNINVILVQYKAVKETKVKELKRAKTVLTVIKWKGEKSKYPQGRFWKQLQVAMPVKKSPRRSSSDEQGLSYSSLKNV


Tests used:
[1] = molecular target: T1, hu-M-IL1RAP construct, positions …; experiment: SPR, Fab analyte, 25 C
Procedure: (§1) Surface plasmon resonance (SPR) analysis was used to determine binding affinity for hu-M-IL1RAP of the purified Fabs containing the selected single, double, and triple mutations in either the VL or VH regions using a BIACORE™ 8K instrument. […] For kinetics measurements, 5 nM biotinylated hu-M-IL1RAP was captured at 10 μL/min to achieve ˜50 response units in the second flow cell (FC2). FC1 was kept as a reference. […] The sensorgrams were recorded and subjected to reference and buffer subtraction before data analysis with the BIACORE® 8K Evaluation Software (version 1.1.1.7442). Association rates (kₒₙ) and dissociation rates (koff) were calculated using a simple one-to-one Langmuir binding model. The equilibrium dissociation constant (KD) was calculated as the ratio of koff/kₒₙ.

[2] = molecular target: T1, hu-M-IL1RAP construct, positions …; experiment: phage display selection of affinity maturation libraries + NGS; enrichment of the mutation R96A (VH)
Procedure: (§2) For the first panning round, plates and phage libraries were blocked in PBS buffer containing 0.05% TWEEN® 20 and 1% BSA for either 1 hour (plates) or 30 minutes (phage libraries). Plates were washed in Wash Buffer (PBS buffer containing 0.05% TWEEN® 20) and incubated with blocked phage libraries for 2 hours with shaking. Non-specifically bound phage was removed by washing vigorously with Wash Buffer. […] Non-specific interactions were inhibited by adding 1/10th v/v 1% BSA.
(§3) For panning rounds three through five, phage libraries were incubated with blocking buffer (PBS buffer with 1% BSA in round 3 and SUPERBLOCK™ PBS buffer (Pierce) and 0.05% TWEEN® 20 in rounds 4 and 5) for 30 minutes and then incubated with decreasing concentrations of biotinylated hu-M-IL1RAP for 1 hour. Hu-M-IL1RAP-bound phage were captured on blocked neutravidin-coated plates, washed extensively with Wash Buffer, and eluted and neutralized in the same manner as in rounds 1 and 2. In the final selection round, 1000× non-biotinylated hu-M-IL1RAP was added as a competitor to increase the selection stringency.
(§4) To extract sequences from affinity maturation libraries using NGS, phagemid double stranded DNA was isolated from E. coli XL-1 cells carrying phagemids from the initial phage library (unsorted libraries) and from the second and third rounds of solution selection (sorted libraries). […]

[3] = molecular target: T1, hu-M-IL1RAP construct, positions …; experiment: SPR, Fab against parent Fab
[4] = molecular target: T1, hu-M-IL1RAP construct, positions …; experiment: phage display selection of affinity maturation libraries + NGS; enrichment of the mutation A51R (VL)
[5] = molecular target: T1, hu-M-IL1RAP construct, positions …; experiment: phage display selection of affinity maturation libraries + NGS; enrichment of the mutation W92I (VL)
Procedure: as §2, §3, §4

[6] = molecular target: T1, hu-M-IL1RAP construct, positions …; experiment: phage display selection of affinity maturation libraries + NGS; enrichment of the mutation T94I (VL)
Procedure: as §2, §3, §4

[7] = molecular target: T1, hu-M-IL1RAP construct, positions …; experiment: phage display selection of affinity maturation libraries + NGS; enrichment of the mutation W92K (VL)
Procedure: as §2, §3, §4

[8] = molecular target: T1, hu-M-IL1RAP construct, positions …; experiment: phage display selection of affinity maturation libraries + NGS; enrichment of the mutation W92L (VL)
[9] = molecular target: T2, human IL1RAP (hu-IL1RAP) on human cells; experiment: cell-based or functional assay
[10] = molecular target: T1, hu-M-IL1RAP construct, positions …; experiment: SPR, Fab analyte, 37 C
Procedure: as §1

[11] = molecular target: T1, hu-M-IL1RAP construct, positions …; experiment: phage display selection of affinity maturation libraries + NGS; enrichment of the mutation A51Y (VL)
Procedure: as §2, §3, §4

[12] = molecular target: T1, hu-M-IL1RAP construct, positions …; experiment: phage display selection of affinity maturation libraries + NGS; enrichment of the mutation A51L (VL)
Procedure: as §2, §3, §4

[13] = molecular target: T1, hu-M-IL1RAP construct, positions …; experiment: phage display selection of affinity maturation libraries + NGS; enrichment of the mutation T94V (VL)
Procedure: as §2, §3, §4

[14] = molecular target: T1, hu-M-IL1RAP construct, positions …; experiment: phage display selection of affinity maturation libraries + NGS; enrichment of the mutation A51D (VL)

Binder	Kd [1] [nM]	koff [1] [s⁻¹]	kon [1] [M⁻¹ s⁻¹]	Fold Improvement in KD @ 25° C. [3] [fold]	other results
H1 Fab (VH R96A) (Fab, V domains shown, Fab with 8xHis tag) VH: EVQLVESGGGLVQPGGSLRLSCAASGFTFSNYAMSWVRQAPGKGLEWVATVTEGGDYNYYLDDVKGRFTISRDNAKNSLYLQMNSLRAEDTAVYYCARDAWPYFFDYWGQGTLVTVSS VL: DIQMTQSPSSLSASVGDRVTITCRASENIYSNLAWYQQKPGKSPKLLVYGAKNLADGVPSRFSGSGSGTDYTLTISSLQPEDFATYYCQHFWTTPRTFGGGTKVEIK	0.125	0.000218	1.75e+06	2.7	Enrichment ratio (at the highest selection stringency) [2]: 4.55 ratio
K7 Fab (VL A51R) (Fab, V domains shown, Fab with 8xHis tag) VH: EVQLVESGGGLVQPGGSLRLSCAASGFTFSNYAMSWVRQAPGKGLEWVATVTEGGDYNYYLDDVKGRFTISRDNAKNSLYLQMNSLRAEDTAVYYCARDRWPYFFDYWGQGTLVTVSS VL: DIQMTQSPSSLSASVGDRVTITCRASENIYSNLAWYQQKPGKSPKLLVYGRKNLADGVPSRFSGSGSGTDYTLTISSLQPEDFATYYCQHFWTTPRTFGGGTKVEIK	0.0119	6.26e-05	5.25e+06	28.3	Enrichment ratio (at the highest selection stringency) [4]: 2.89 ratio
K12 Fab (VL W92I) (Fab, V domains shown, Fab with 8xHis tag) VH: EVQLVESGGGLVQPGGSLRLSCAASGFTFSNYAMSWVRQAPGKGLEWVATVTEGGDYNYYLDDVKGRFTISRDNAKNSLYLQMNSLRAEDTAVYYCARDRWPYFFDYWGQGTLVTVSS VL: DIQMTQSPSSLSASVGDRVTITCRASENIYSNLAWYQQKPGKSPKLLVYGAKNLADGVPSRFSGSGSGTDYTLTISSLQPEDFATYYCQHFITTPRTFGGGTKVEIK	0.0411	0.00023	5.58e+06	8.2	Enrichment ratio (at the highest selection stringency) [5]: 3.36 ratio
K14 Fab (VL T94I) (Fab, V domains shown, Fab with 8xHis tag) VH: EVQLVESGGGLVQPGGSLRLSCAASGFTFSNYAMSWVRQAPGKGLEWVATVTEGGDYNYYLDDVKGRFTISRDNAKNSLYLQMNSLRAEDTAVYYCARDRWPYFFDYWGQGTLVTVSS VL: DIQMTQSPSSLSASVGDRVTITCRASENIYSNLAWYQQKPGKSPKLLVYGAKNLADGVPSRFSGSGSGTDYTLTISSLQPEDFATYYCQHFWTIPRTFGGGTKVEIK	0.0913	0.000543	5.95e+06	3.69	Enrichment ratio (at the highest selection stringency) [6]: 1.74 ratio
K3 Fab (VL W92K) (Fab, V domains shown, Fab with 8xHis tag) VH: EVQLVESGGGLVQPGGSLRLSCAASGFTFSNYAMSWVRQAPGKGLEWVATVTEGGDYNYYLDDVKGRFTISRDNAKNSLYLQMNSLRAEDTAVYYCARDRWPYFFDYWGQGTLVTVSS VL: DIQMTQSPSSLSASVGDRVTITCRASENIYSNLAWYQQKPGKSPKLLVYGAKNLADGVPSRFSGSGSGTDYTLTISSLQPEDFATYYCQHFKTTPRTFGGGTKVEIK	0.0523	0.000198	3.78e+06	6.44	Enrichment ratio (at the highest selection stringency) [7]: 3.31 ratio
K4 Fab (VL W92L) (Fab, V domains shown, Fab with 8xHis tag) VH: EVQLVESGGGLVQPGGSLRLSCAASGFTFSNYAMSWVRQAPGKGLEWVATVTEGGDYNYYLDDVKGRFTISRDNAKNSLYLQMNSLRAEDTAVYYCARDRWPYFFDYWGQGTLVTVSS VL: DIQMTQSPSSLSASVGDRVTITCRASENIYSNLAWYQQKPGKSPKLLVYGAKNLADGVPSRFSGSGSGTDYTLTISSLQPEDFATYYCQHFLTTPRTFGGGTKVEIK	0.147	0.000751	5.12e+06	2.29	Enrichment ratio (at the highest selection stringency) [8]: 0.416 ratio
K10 Fab (VL A51Y) (Fab, V domains shown, Fab with 8xHis tag) VH: EVQLVESGGGLVQPGGSLRLSCAASGFTFSNYAMSWVRQAPGKGLEWVATVTEGGDYNYYLDDVKGRFTISRDNAKNSLYLQMNSLRAEDTAVYYCARDRWPYFFDYWGQGTLVTVSS VL: DIQMTQSPSSLSASVGDRVTITCRASENIYSNLAWYQQKPGKSPKLLVYGYKNLADGVPSRFSGSGSGTDYTLTISSLQPEDFATYYCQHFWTTPRTFGGGTKVEIK	0.00855	5.06e-05	5.92e+06	39.4	HEK-Blue, IL-1β, % inhibition at 100 nM (Fab) [9]: 100%; HEK-Blue, IL-1β, IC50 (Fab) [9]: 0.66 nM; HEK-Blue, IL-33, % inhibition at 100 nM (Fab) [9]: 98%; HEK-Blue, IL-33, IC50 (Fab) [9]: 3.26 nM; HEK-Blue, IL-36α, % inhibition at 100 nM (Fab) [9]: 100%; HEK-Blue, IL-36α, IC50 (Fab) [9]: 0.706 nM; Kd [10]: 0.0298 nM; koff [10]: 0.000153 s⁻¹; kon [10]: 5.12e+06 M⁻¹ s⁻¹; Enrichment ratio (at the highest selection stringency) [11]: 2.95 ratio; Fold Improvement in KD @ 37° C. [3]: 8.99 fold
K8 Fab (VL A51L) (Fab, V domains shown, Fab with 8xHis tag) VH: EVQLVESGGGLVQPGGSLRLSCAASGFTFSNYAMSWVRQAPGKGLEWVATVTEGGDYNYYLDDVKGRFTISRDNAKNSLYLQMNSLRAEDTAVYYCARDRWPYFFDYWGQGTLVTVSS VL: DIQMTQSPSSLSASVGDRVTITCRASENIYSNLAWYQQKPGKSPKLLVYGLKNLADGVPSRFSGSGSGTDYTLTISSLQPEDFATYYCQHFWTTPRTFGGGTKVEIK	0.0131	6.76e-05	5.15e+06	25.7	Enrichment ratio (at the highest selection stringency) [12]: 2.9 ratio
K15 Fab (VL T94V) (Fab, V domains shown, Fab with 8xHis tag) VH: EVQLVESGGGLVQPGGSLRLSCAASGFTFSNYAMSWVRQAPGKGLEWVATVTEGGDYNYYLDDVKGRFTISRDNAKNSLYLQMNSLRAEDTAVYYCARDRWPYFFDYWGQGTLVTVSS VL: DIQMTQSPSSLSASVGDRVTITCRASENIYSNLAWYQQKPGKSPKLLVYGAKNLADGVPSRFSGSGSGTDYTLTISSLQPEDFATYYCQHFWTVPRTFGGGTKVEIK	0.12	0.00068	5.67e+06	2.81	Enrichment ratio (at the highest selection stringency) [13]: 0.987 ratio
K9 Fab (VL A51D) (Fab, V domains shown, Fab with 8xHis tag) VH: EVQLVESGGGLVQPGGSLRLSCAASGFTFSNYAMSWVRQAPGKGLEWVATVTEGGDYNYYLDDVKGRFTISRDNAKNSLYLQMNSLRAEDTAVYYCARDRWPYFFDYWGQGTLVTVSS VL: DIQMTQSPSSLSASVGDRVTITCRASENIYSNLAWYQQKPGKSPKLLVYGDKNLADGVPSRFSGSGSGTDYTLTISSLQPEDFATYYCQHFWTTPRTFGGGTKVEIK	0.021	0.000103	4.93e+06	16.1	Enrichment ratio (at the highest selection stringency) [14]: 2.84 ratio
